The data set in a line: background-corrected fluorescence of 3'-dye-labeled ssDNA relative to brightest sequence (3'-GCGCG) (fraction); higher = brighter dye fluorescence (less quenching). In a few lines: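 Arrays of single-stranded DNA, with a 3' Cy3 or Cy5 dye beside each of 1024 permuted pentamers, were built on glass slides through light-directed phosphoramidite synthesis. They were washed for 2 h at r.t. in acetonitrile and scanned at 532 or 635 nm, once before and once after overnight ethylenediamine/ethanol deprotection. Fluorescence is reported after subtracting unlabeled-oligo background and normalizing to the brightest sequence. Averages cover 10 features per array and at least 3 syntheses.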

± gives the standard error.

“TTTTTTGCGCATCATCAGCATTTTTTTTTTTTTTTATGGT [TGGTA]” showed a background-corrected fluorescence (dye: Cy3 (3' terminal)) of 0.649 ± 0.027 and a background-corrected fluorescence (dye: Cy5 (3' terminal)) of 0.561 ± 0.028.

For the sequence “TTTTTTGCGCATCATCATCATTTTTTTTTTTTTTTATGGG [GGGTA]”, the background-corrected fluorescence (dye: Cy3 (3' terminal)) was determined as 0.661 ± 0.035 and the background-corrected fluorescence (dye: Cy5 (3' terminal)) is 0.548 ± 0.037.

Consider “TTTTTTGCGCATCATCATGATTTTTTTTTTTTTTTATGGC [CGGTA]”, for which the background-corrected fluorescence turned out to be 0.545 ± 0.043 (dye: Cy3 (3' terminal)) and 0.445 ± 0.026 (dye: Cy5 (3' terminal)).

Regarding “TTTTTTGCGCATCATCATGCTTTTTTTTTTTTTTTATGGA [AGGTA]”, the background-corrected fluorescence reads like this: (dye: Cy3 (3' terminal)) 0.712 ± 0.02; (dye: Cy5 (3' terminal)) 0.599 ± 0.041.

As for “TTTTTTGCGCATCATGAGCATTTTTTTTTTTTTTTATGCT [TCGTA]”, the background-corrected fluorescence (dye: Cy3 (3' terminal)) was 0.518 ± 0.029 and the background-corrected fluorescence (dye: Cy5 (3' terminal)) was found to be 0.393 ± 0.02.

As for “TTTTTTGCGCATCATGATCATTTTTTTTTTTTTTTATGCG [GCGTA]”, the background-corrected fluorescence came to 0.587 ± 0.017 (dye: Cy3 (3' terminal)) and 0.49 ± 0.035 (dye: Cy5 (3' terminal)).

In the case of “TTTTTTGCGCATCATGATGATTTTTTTTTTTTTTTATGCC [CCGTA]”, the background-corrected fluorescence runs as follows: (dye: Cy3 (3' terminal)) 0.436 ± 0.0052; (dye: Cy5 (3' terminal)) 0.319 ± 0.02.

Regarding “TTTTTTGCGCATCATGATGCTTTTTTTTTTTTTTTATGCA [ACGTA]”, the background-corrected fluorescence is, setting by setting: (dye: Cy3 (3' terminal)) 0.527 ± 0.024; (dye: Cy5 (3' terminal)) 0.46 ± 0.036.

With “TTTTTTGCGCATCATGCGCATTTTTTTTTTTTTTTATGAT [TAGTA]”, the background-corrected fluorescence reads like this: (dye: Cy3 (3' terminal)) 0.615 ± 0.028; (dye: Cy5 (3' terminal)) 0.471 ± 0.03.

“TTTTTTGCGCATCATGCTCATTTTTTTTTTTTTTTATGAG [GAGTA]”: the background-corrected fluorescence by setting is: (dye: Cy3 (3' terminal)) 0.602 ± 0.036; (dye: Cy5 (3' terminal)) 0.466 ± 0.04.

For the sequence “TTTTTTGCGCATCATGCTGATTTTTTTTTTTTTTTATGAC [CAGTA]”, the background-corrected fluorescence stood at 0.469 ± 0.0096 (dye: Cy3 (3' terminal)) and 0.376 ± 0.02 (dye: Cy5 (3' terminal)).

With “TTTTTTGCGCATCATGCTGCTTTTTTTTTTTTTTTATGAA [AAGTA]”, the background-corrected fluorescence runs as follows: (dye: Cy3 (3' terminal)) 0.594 ± 0.017; (dye: Cy5 (3' terminal)) 0.51 ± 0.053.

For “TTTTTTGCGCATGAGCAGCATTTTTTTTTTTTTTTATCTT [TTCTA]”, the background-corrected fluorescence is, setting by setting: (dye: Cy3 (3' terminal)) 0.458 ± 0.0056; (dye: Cy5 (3' terminal)) 0.35 ± 0.024.

Consider “TTTTTTGCGCATGAGCATCATTTTTTTTTTTTTTTATCTG [GTCTA]”, for which the background-corrected fluorescence by setting is: (dye: Cy3 (3' terminal)) 0.55 ± 0.026; (dye: Cy5 (3' terminal)) 0.371 ± 0.036.

Regarding “TTTTTTGCGCATGAGCATGATTTTTTTTTTTTTTTATCTC [CTCTA]”, the background-corrected fluorescence worked out at 0.41 ± 0.024 (dye: Cy3 (3' terminal)) and 0.291 ± 0.02 (dye: Cy5 (3' terminal)).

As for “TTTTTTGCGCATGAGCATGCTTTTTTTTTTTTTTTATCTA”, the background-corrected fluorescence by setting is: (dye: Cy3 (3' terminal)) 0.482 ± 0.029; (dye: Cy5 (3' terminal)) 0.368 ± 0.025.

For the sequence “TTTTTTGCGCATGATCAGCATTTTTTTTTTTTTTTATCGT [TGCTA]”, the background-corrected fluorescence is, setting by setting: (dye: Cy3 (3' terminal)) 0.605 ± 0.011; (dye: Cy5 (3' terminal)) 0.449 ± 0.027.

Take “TTTTTTGCGCATGATCATCATTTTTTTTTTTTTTTATCGG [GGCTA]”: the background-corrected fluorescence runs as follows: (dye: Cy3 (3' terminal)) 0.609 ± 0.022; (dye: Cy5 (3' terminal)) 0.504 ± 0.027.

As to “TTTTTTGCGCATGATCATGATTTTTTTTTTTTTTTATCGC [CGCTA]”, the background-corrected fluorescence came to 0.534 ± 0.017 (dye: Cy3 (3' terminal)) and 0.439 ± 0.02 (dye: Cy5 (3' terminal)).

Take “TTTTTTGCGCATGATCATGCTTTTTTTTTTTTTTTATCGA [AGCTA]”: the background-corrected fluorescence is, setting by setting: (dye: Cy3 (3' terminal)) 0.635 ± 0.0066; (dye: Cy5 (3' terminal)) 0.517 ± 0.043.

The sequence “TTTTTTGCGCATGATGAGCATTTTTTTTTTTTTTTATCCT [TCCTA]” had a background-corrected fluorescence (dye: Cy3 (3' terminal)) of 0.447 ± 0.015 and a background-corrected fluorescence (dye: Cy5 (3' terminal)) of 0.348 ± 0.02.

On to “TTTTTTGCGCATGATGATCATTTTTTTTTTTTTTTATCCG [GCCTA]”, for which the background-corrected fluorescence reads like this: (dye: Cy3 (3' terminal)) 0.518 ± 0.023; (dye: Cy5 (3' terminal)) 0.427 ± 0.035.

In turn, “TTTTTTGCGCATGATGATGATTTTTTTTTTTTTTTATCCC [CCCTA]” came in with a background-corrected fluorescence (dye: Cy3 (3' terminal)) of 0.369 ± 0.026 and a background-corrected fluorescence (dye: Cy5 (3' terminal)) of 0.247 ± 0.016.

For the sequence “TTTTTTGCGCATGATGATGCTTTTTTTTTTTTTTTATCCA [ACCTA]”, the background-corrected fluorescence (dye: Cy3 (3' terminal)) is 0.476 ± 0.012 and the background-corrected fluorescence (dye: Cy5 (3' terminal)) is 0.373 ± 0.038.

As to “TTTTTTGCGCATGATGCGCATTTTTTTTTTTTTTTATCAT [TACTA]”, the background-corrected fluorescence reads like this: (dye: Cy3 (3' terminal)) 0.511 ± 0.02; (dye: Cy5 (3' terminal)) 0.408 ± 0.028.

For “TTTTTTGCGCATGATGCTCATTTTTTTTTTTTTTTATCAG [GACTA]”, the background-corrected fluorescence stood at 0.56 ± 0.045 (dye: Cy3 (3' terminal)) and 0.411 ± 0.03 (dye: Cy5 (3' terminal)).

“TTTTTTGCGCATGATGCTGATTTTTTTTTTTTTTTATCAC [CACTA]”: the background-corrected fluorescence runs as follows: (dye: Cy3 (3' terminal)) 0.399 ± 0.025; (dye: Cy5 (3' terminal)) 0.325 ± 0.032.

As to “TTTTTTGCGCATGATGCTGCTTTTTTTTTTTTTTTATCAA [AACTA]”, the background-corrected fluorescence runs as follows: (dye: Cy3 (3' terminal)) 0.522 ± 0.012; (dye: Cy5 (3' terminal)) 0.411 ± 0.035.

As to “TTTTTTGCGCATGCGCAGCATTTTTTTTTTTTTTTATATT”, the background-corrected fluorescence is, setting by setting: (dye: Cy3 (3' terminal)) 0.543 ± 0.019; (dye: Cy5 (3' terminal)) 0.392 ± 0.024.

(Values after the supplement of paper PMC9428881.)
